Test results reported in publication PMC5735676, “Leishmania braziliensis SCD6 and RBP42 proteins, two factors with RNA binding capacity”.

How the values were obtained:
[1] = biological target: T1, rLbRBP42 (Leishmania braziliensis, UniProt A4HIP3 1-338); test: EMSA; 6 mM Mg2+, heparin; 3 pM protein, 12.5 nM RNA; EMSA: 10 mM HEPES pH 7.3, 20 mM KCl, 6 mM MgCl2, 1 mM DTT, 0.05% NP-40, 1 ug/ul heparin, 40 U RNaseOUT, room temperature 20 min, 6% native PAGE 0.5x TBE; pull-down at room temperature on His-tag Dynabeads, 1x pull-down buffer (composition not stated); conditions: protein: recombinant; tags: His tag (nickel column); label: 5' digoxigenin
T1 sequence: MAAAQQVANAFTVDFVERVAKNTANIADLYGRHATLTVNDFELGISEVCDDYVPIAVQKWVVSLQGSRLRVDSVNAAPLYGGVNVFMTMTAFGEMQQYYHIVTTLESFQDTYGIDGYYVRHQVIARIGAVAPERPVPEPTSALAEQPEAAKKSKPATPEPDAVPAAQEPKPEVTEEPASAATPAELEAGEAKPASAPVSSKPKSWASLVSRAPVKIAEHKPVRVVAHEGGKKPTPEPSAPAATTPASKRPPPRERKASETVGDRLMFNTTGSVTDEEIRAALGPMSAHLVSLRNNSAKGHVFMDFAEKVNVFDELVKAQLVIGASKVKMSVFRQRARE

[2] = biological target: T2, rLbSCD6 (Leishmania braziliensis, UniProt A4HEG4 1-294); test: EMSA; 6 mM Mg2+, heparin; 12.5 nM RNA; EMSA: 10 mM HEPES pH 7.3, 20 mM KCl, 6 mM MgCl2, 1 mM DTT, 0.05% NP-40, 1 ug/ul heparin, 40 U RNaseOUT, room temperature 20 min, 6% native PAGE 0.5x TBE; pull-down at room temperature on His-tag Dynabeads, 1x pull-down buffer (composition not stated); conditions: protein: recombinant; tags: His tag (nickel column); label: 5' digoxigenin
T2 sequence: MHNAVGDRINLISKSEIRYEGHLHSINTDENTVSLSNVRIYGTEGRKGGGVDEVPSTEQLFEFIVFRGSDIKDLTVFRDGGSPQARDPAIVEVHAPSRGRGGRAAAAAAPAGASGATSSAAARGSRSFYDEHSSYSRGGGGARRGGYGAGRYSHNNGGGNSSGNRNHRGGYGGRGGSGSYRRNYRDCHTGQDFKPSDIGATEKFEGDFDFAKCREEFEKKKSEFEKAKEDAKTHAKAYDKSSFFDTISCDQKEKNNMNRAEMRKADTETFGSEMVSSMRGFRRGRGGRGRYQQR

[3] = biological target: T1, rLbRBP42; test: competition; vs 12.5 nM labeled N2; decrease of complex only at 4-fold cold RNA; EMSA: 10 mM HEPES pH 7.3, 20 mM KCl, 6 mM MgCl2, 1 mM DTT, 0.05% NP-40, 1 ug/ul heparin, 40 U RNaseOUT, room temperature 20 min, 6% native PAGE 0.5x TBE; pull-down at room temperature on His-tag Dynabeads, 1x pull-down buffer (composition not stated); conditions: protein: recombinant; tags: His tag (nickel column)
[4] = biological target: T2, rLbSCD6; test: competition; vs 12.5 nM labeled N2; completely competed at 1-fold cold RNA; EMSA: 10 mM HEPES pH 7.3, 20 mM KCl, 6 mM MgCl2, 1 mM DTT, 0.05% NP-40, 1 ug/ul heparin, 40 U RNaseOUT, room temperature 20 min, 6% native PAGE 0.5x TBE; pull-down at room temperature on His-tag Dynabeads, 1x pull-down buffer (composition not stated); conditions: protein: recombinant; tags: His tag (nickel column)
[5] = biological target: T2, rLbSCD6; test: competition; vs 12.5 nM labeled N2; up to 8-fold (100 nM) cold RNA; EMSA: 10 mM HEPES pH 7.3, 20 mM KCl, 6 mM MgCl2, 1 mM DTT, 0.05% NP-40, 1 ug/ul heparin, 40 U RNaseOUT, room temperature 20 min, 6% native PAGE 0.5x TBE; pull-down at room temperature on His-tag Dynabeads, 1x pull-down buffer (composition not stated); conditions: protein: recombinant; tags: His tag (nickel column)
[6] = biological target: T1, rLbRBP42; test: as above; conditions: protein: recombinant; tags: His tag (nickel column)

B1: 3' UTR-II.1 motif (ssRNA)
RNA: AUGUCUUUUAUUUUUUUGUGUGUGUUUUAUAUUUUUCUCCUUUCGUACUAA
Q: What does the source list for B1?
A: binding result [1]: binds; binding result [2]: binds

B2: 3' UTR-II.1 motif, cold (ssRNA)
RNA: B1 RNA
Q: Does B2 bind [3]?
A: Result: binds

Q: Does B2 bind [4]?
A: Result: binds

B3: 3' UTR-II.1 antisense (ssRNA)
RNA: UACAGAAAAUAAAAAAACACACACAAAAUAUAAAAAGAGGAAAGCAUGAUU
Q: Does B3 bind [5]?
A: Result: no binding

Q: Does B3 bind [6]?
A: Result: no binding
